Measured values: patent US20220411498A1 (JACOBIO PHARMACEUTICALS, published 2022)

T1: cyno CD39 on the cell surface (293T/17-cyno CD39 cells) (cyno, UniProt P49961 7-510 (human entry))
T1 chain: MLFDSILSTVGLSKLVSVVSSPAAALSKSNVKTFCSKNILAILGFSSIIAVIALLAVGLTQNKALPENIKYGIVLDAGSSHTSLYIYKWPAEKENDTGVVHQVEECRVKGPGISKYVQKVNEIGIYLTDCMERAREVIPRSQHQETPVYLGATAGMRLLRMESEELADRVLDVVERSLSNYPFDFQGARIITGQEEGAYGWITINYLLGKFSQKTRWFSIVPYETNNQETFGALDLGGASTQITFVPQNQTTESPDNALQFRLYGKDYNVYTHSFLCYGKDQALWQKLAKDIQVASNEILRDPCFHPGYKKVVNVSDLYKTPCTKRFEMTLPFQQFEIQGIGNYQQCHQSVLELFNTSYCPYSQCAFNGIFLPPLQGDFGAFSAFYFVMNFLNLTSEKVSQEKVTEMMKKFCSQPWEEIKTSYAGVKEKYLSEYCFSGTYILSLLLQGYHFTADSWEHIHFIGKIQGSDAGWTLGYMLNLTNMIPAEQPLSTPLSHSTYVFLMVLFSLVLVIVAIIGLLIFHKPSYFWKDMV

T2: huCD39 on the cell surface (293T/17-huCD39 cells) (human, UniProt P49961 1-510)
T2 sequence (looked up): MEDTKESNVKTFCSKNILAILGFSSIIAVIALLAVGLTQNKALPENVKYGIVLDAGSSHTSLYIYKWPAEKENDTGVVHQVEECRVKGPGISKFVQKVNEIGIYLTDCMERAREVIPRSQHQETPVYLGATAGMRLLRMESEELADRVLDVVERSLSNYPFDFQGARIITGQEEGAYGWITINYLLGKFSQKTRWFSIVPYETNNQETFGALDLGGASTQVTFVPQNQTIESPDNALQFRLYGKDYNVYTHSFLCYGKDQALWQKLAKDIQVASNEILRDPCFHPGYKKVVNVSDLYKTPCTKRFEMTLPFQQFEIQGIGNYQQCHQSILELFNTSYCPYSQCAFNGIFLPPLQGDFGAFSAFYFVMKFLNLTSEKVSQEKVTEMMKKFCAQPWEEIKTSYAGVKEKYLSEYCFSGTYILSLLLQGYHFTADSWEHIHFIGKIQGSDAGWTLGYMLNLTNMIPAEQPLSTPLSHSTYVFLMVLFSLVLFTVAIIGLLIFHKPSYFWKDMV

T3: huCD39 recombinant protein (human, UniProt P49961 38-478)
T3 construct: the entry is the extracellular domain and ends in a histidine tag; also called soluble huCD39 protein; human CD39 extracellular domain recombinant protein
T3 sequence: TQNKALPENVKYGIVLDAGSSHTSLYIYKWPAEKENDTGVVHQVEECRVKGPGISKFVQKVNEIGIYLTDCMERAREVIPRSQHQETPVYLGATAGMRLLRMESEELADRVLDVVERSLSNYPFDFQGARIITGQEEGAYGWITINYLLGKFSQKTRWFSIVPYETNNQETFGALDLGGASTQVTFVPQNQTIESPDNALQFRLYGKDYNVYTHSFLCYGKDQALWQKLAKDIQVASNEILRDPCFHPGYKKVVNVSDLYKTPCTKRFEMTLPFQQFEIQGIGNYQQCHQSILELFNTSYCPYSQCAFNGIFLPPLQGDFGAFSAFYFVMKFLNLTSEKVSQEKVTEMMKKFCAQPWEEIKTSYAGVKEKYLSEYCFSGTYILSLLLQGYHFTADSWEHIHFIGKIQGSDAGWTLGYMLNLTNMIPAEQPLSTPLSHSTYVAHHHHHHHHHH


Tests used:
[1] = biological target: T1, cyno CD39 on the cell surface …; test: cell-based or functional assay
[2] = biological target: T2, huCD39 on the cell surface …; test: cell-based or functional assay
[3] = biological target: T2, huCD39 on the cell surface …; test: flow cytometry on 293T/17-huCD39 cells
Description: (§1) Flow cytometry assay: recombinant host cell line 293T/17-huCD39 cells expressing huCD39 and recombinant host cell line 293T/17-cyno CD39 cells expressing cyno CD39 were used to evaluate the binding ability of the chimeric antibody to the natural CD39 protein on the cell surface. The recombinant cells were resuspended in PBS buffer, and 2×10⁶ cells were added to a 96-well U-plate. The chimeric antibody in a certain gradient dilution range incubated for 1h at 4° C. in a refrigerator or on ice, centrifuged at 1500 rpm for 3 min at 4° C., washed three times with PBS buffer, and then incubated for 30 min at 4° C. in the refrigerator or on ice with diluted Alexa Fluor 488-labeled goat anti-human polyclonal antibody (pAb): Goat anti-Human IgG (H+L) Cross-Adsorbed Secondary Antibody, Alexa Fluor 488 (thermo). Finally the cells were washed three times with PBS as described above and analyzed in MACSQuant flow cytometry. GraphPad Prism software was used to generate data plots and count affinity data (FIG. 2). The results are shown in Table 2, and the EC₅₀ values of each chimeric antibody of 293T/17-huCD39 and 293T/17-cyno CD39 was at the level of 10⁻⁹M.

[4] = biological target: T1, cyno CD39 on the cell surface …; test: flow cytometry on 293T/17-cyno CD39 cells
Description: as §1

[5] = biological target: T3, huCD39 recombinant protein; test: indirect ELISA, huCD39 recombinant protein coated at 1 ug/mL
Description: The Fv region of the four mouse-derived antibodies obtained in Example 1 was fused with the human IgG2 Fc region and constructed into the pcDNA3.1 vector. Then transfected 293F cells to express the antibody proteins, and the antibodies were purified by ProteinA affinity chromatography. […] The next day, the plates were washed 5 times with PBS buffer and blocked with 200 μL/well of 2% skimmed milk powder for 1 h. A certain dose range of chimeric CD39 antibody was incubated for 1 h at room temperature; then washed 5 times with PBST washing buffer (PBS, 0.05% Tween 20). 100 μL of HRP-labeled secondary antibody was added to each well and the plates were incubated for 30 min at room temperature. The plates were washed 5 times again and TMB (Life Technologies) was added for color development for 5 to 10 min. At last, 1N HCl was added to terminate the reaction, and the OD value was measured at 450 nm. GraphPad Prism software was used to generate data plots and the affinity data was counted (FIG. 1).

Row | Blocking of ATPase activity on cell surface (293T/17-cyno CD39, CellTiter Glo): Bottom [1] | Blocking of ATPase activity on cell surface (293T/17-cyno CD39, CellTiter Glo): EC50 [1] | Blocking of ATPase activity on cell surface (293T/17-cyno CD39, CellTiter Glo): Top [1] | Blocking of ATPase activity on cell surface (293T/17-huCD39, CellTiter Glo): EC50 [2] | Blocking of ATPase activity on cell surface (293T/17-huCD39, CellTiter Glo): Top [2] | Bottom [3] | EC50 [3] | Top [3] | Bottom [4] | EC50 [4] | Top [4] | Bottom [5] | EC50 [5] | Top [5] | Blocking of ATPase activity on cell surface (293T/17-huCD39, CellTiter Glo): Bottom [2] | Binder
1 | 55600 | 0.024 nM | 275000 | 0.011 nM | 1.03e+06 | 2.17 | 5.92 nM | 151 | 1.81 | 11 nM | 191 | 0.06 OD450 | 2.43 nM | 1.43 OD450 |  | 216 hIgG2 (antibody, V domains shown, Chimeric antibody: mouse Fv fused to the human IgG2 constant region; also called chimeric antibody 216) VH: EVQLVESGGGLVKPGGSLKLPCAASGFTFSDYGMHWVRQAPEKGLEWVAYISSGSSIIYYADTVKGRFTISRDNAKNTLFLQMTSLRSEDTAMYYCARDLYYDHVLDYWGQGTTLTVAS VL: DIQMTQSPSSLSASLGERVSLTCRASQEISGYLIWLQQKPDGTIKRLIYAASTLDSGVPKRFSGNRSGSDYSLTISSLESEDFADYYCLQYASYPRTFGGGTKLEIKR
2 | 42200 | 0.029 nM | 283000 | 0.008 nM | 1.19e+06 | 5.8 | 3.8 nM | 116 | 3 | 9.49 nM | 160 | 0.07 OD450 | 4.8 nM | 1.39 OD450 | 147000 | 217 hIgG2 (antibody, V domains shown, Chimeric antibody: mouse Fv fused to the human IgG2 constant region) VH: EVQLVESGGGLVKPGGSLKLSCAASGFTFSDYGMHWVRQAPEKGLEWVAYISSGSSVIYYVDTVKGRFTISRDNAKNTLFLQMTSLRSEDTAMYYCARDLYYDHVLDSWGQGTTLTVSS VL: DIQMTQSPSSLSASLGERVSLTCRASQEIGGYLSWLQQKPDGTIKRLIYAASTLDSGVPKRFSGSRSGSDYSLTISSLESEDFADYYCLQYASYPRTFGGGTKLEIKR
3 | 44500 | 0.024 nM | 303000 | 0.01 nM | 800000 | 3.81 | 4.51 nM | 156 | 3.33 | 8.16 nM | 214 | 0.052 OD450 | 1.69 nM | 1.33 OD450 | 172000 | 219 hIgG2 (antibody, V domains shown, Chimeric antibody: mouse Fv fused to the human IgG2 constant region; also called chimeric antibody 219) VH: EVQLVESGGGLVKPGGSLKLSCAASGFTFSDYGMHWVRQAPEKGLEWVAYISSGSSIRYYADTVKGRFTISRDNAKNTLFLQMTSLRSEDTAIYYCARDLYYDHVLDYWGQGTTLTVSS VL: DIQMTQSPSSLSASLGERVSLTCRASQEVSGYLNWLQQKPDGTIKRLIYAASTLDSGVPKRFSGSRSGSDYSLTISSLESEDFADYYCLQYASYPRTFGGGTKVEIKR
4 | 42300 | 0.014 nM | 232000 | 0.004 nM | 871000 | -6.24 | 6.56 nM | 189 | 3.23 | 8.69 nM | 209 | 0.046 OD450 | 1.4 nM | 1.64 OD450 | 119000 | 201 hIgG2 (antibody, V domains shown, Chimeric antibody: mouse Fv fused to the human IgG2 constant region, expressed in 293F cells; also called chimeric antibody 201) VH: EVQLVESGGGLVKPGGSLKLSCAASGFTFSDYGMHWVRQAPEKGLEWVAYISSGSSIMYYADTVKGRFTISRDNAKNTLFLQMASLRSEDTAMYYCARDLYYDHVLDYWGQGTTLTVSS VL: DIQMTQSPSSLSASLGERVSLTCRASQEIRGYLIWLQQKPGGTIKRLIYAASTLDSGVPKRFSGSRSGSDYSLTISSLESEDFADYYCLQYTSYPRTFGGGTKLEIKR
